The target in experiment [1] is 30Kc19 C76A protein (Bombyx mori). Description: native gel or EMSA.
In experiment [2] the target is recombinant 30Kc19 protein (Bombyx mori). Description: native gel or EMSA.
Experiment [3] has the same target. In words: native gel or EMSA. This is another data set of the same source.
For experiment [4] the target is unchanged. In words: native gel or EMSA. The source holds these as a separate data set.
For experiment [5] the target is unchanged. In words: non-reducing SDS-PAGE.

In experiment [1], 30Kc19 C76A protein (natural protein) registered a stoichiometry N of 2.
With “recombinant 30Kc19 protein (natural protein)”, the stoichiometry N in experiment [2], in experiment [3], in experiment [4] and in experiment [5] was 2 in each case.

Source of the values: paper PMC4283735.
